Measurements as given in US20160046725A1 (PIERRE FABRE MEDICAMENT, published 2016).

T1: human Axl receptor on human tumor cells (human, UniProt P30530 26-894)
T1 sequence: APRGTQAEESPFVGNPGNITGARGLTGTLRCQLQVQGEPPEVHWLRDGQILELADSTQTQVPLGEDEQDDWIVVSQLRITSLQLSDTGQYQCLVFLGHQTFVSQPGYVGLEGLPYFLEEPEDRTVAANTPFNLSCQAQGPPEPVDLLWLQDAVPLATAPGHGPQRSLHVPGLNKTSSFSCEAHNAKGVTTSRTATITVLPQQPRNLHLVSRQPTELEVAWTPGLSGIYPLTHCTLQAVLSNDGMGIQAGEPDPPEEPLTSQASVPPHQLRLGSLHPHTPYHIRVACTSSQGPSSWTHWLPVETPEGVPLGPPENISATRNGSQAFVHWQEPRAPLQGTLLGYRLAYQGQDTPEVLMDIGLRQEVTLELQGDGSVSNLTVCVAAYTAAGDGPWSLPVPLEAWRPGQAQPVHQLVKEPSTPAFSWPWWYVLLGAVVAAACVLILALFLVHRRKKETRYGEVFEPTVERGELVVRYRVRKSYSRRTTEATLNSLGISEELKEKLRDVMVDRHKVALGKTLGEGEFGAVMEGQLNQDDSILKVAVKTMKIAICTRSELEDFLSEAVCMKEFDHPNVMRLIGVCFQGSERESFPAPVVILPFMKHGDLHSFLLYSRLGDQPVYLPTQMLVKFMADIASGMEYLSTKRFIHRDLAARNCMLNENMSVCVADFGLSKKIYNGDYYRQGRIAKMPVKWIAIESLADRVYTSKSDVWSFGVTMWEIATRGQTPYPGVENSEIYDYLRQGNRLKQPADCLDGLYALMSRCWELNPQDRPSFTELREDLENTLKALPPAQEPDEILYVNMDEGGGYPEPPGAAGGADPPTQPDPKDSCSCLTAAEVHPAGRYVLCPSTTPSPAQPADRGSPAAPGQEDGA

T2: monkey Axl receptor on COS7 cells (African green monkey, UniProt A0A0D9S0W1 26-894)
T2 construct: also called monkey cellular form of the Axl receptor
T2 sequence: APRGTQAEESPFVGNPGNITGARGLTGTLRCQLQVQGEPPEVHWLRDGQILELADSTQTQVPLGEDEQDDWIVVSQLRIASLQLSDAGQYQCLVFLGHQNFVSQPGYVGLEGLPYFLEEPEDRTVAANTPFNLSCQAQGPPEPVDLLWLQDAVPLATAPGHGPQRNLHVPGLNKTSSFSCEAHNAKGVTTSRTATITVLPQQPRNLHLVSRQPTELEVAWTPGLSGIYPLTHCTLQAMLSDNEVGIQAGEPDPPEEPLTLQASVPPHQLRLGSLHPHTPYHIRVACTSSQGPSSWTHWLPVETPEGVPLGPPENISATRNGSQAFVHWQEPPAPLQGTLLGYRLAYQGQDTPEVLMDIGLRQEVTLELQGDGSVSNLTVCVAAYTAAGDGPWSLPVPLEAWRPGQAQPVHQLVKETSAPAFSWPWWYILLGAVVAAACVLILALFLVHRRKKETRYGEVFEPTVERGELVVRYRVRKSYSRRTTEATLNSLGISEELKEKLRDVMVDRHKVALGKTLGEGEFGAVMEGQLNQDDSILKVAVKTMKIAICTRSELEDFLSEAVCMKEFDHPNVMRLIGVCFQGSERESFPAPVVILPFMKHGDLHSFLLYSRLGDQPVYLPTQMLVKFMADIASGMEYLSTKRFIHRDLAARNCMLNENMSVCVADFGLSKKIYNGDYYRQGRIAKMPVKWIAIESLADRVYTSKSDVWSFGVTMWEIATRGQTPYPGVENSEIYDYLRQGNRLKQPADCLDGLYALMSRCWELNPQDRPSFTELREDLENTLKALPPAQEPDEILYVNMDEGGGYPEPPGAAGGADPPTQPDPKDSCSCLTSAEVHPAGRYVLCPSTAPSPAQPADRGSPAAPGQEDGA

B1: 110D7 anti-Axl monoclonal antibody (antibody, V domains shown)
VH: EVKLVESGGGLVQPGGSLKLSCATSGFTFSDYYMYWVRQTPEKRLEWVAYISNGGGSTYYPDTVKGRFTMSRDNAKNTLYLQMSRLKSEDTAMYYCARLSFYAMDYWGQGTSVTVSS
VL: DIVMTQSHKFMSTSVGDRVSITCKASQDVTTAVAWYQQKPGQSPKLLIYWASTRHTGVPDRFTGSGSGTDYTLTISSVQAEDLALYYCQQHYRIPFTFGSGTKLEIK
notes: Murine monoclonal antibody purified from a hybridoma; a mIgG1 isotype control (9G4) is used beside it; also called m110D7; monoclonal antibody 110D7 derived from the hybridoma I-3959
B2: 1024G11 anti-Axl monoclonal antibody (antibody, V domains shown)
VH: EVKLVESGGGLVQPGGSLNLSCAASGFTFSSYSMSWVRQTPEKRLEWVAFISNGGGRTYYPDTVKGRFTFSRDNARNTLYLQMSSLNSEDTAMYFCARGTTESYYAMDYWGQGTSVTVSS
VL: DIVMTQSHKFMSTSVGDRVSITCKASQDVITAVAWYQQKPGQSPKLLIYWASTRHTGVPDRFTGSGSGTDYTLTISSVQAEDLALYFCQQHLSTPLTFGAGTKLELK
notes: Murine monoclonal antibody purified from a hybridoma; a mIgG1 isotype control (9G4) is used beside it; also called monoclonal antibody 1024G11 derived from the hybridoma I-4501
B3: 1003A2 anti-Axl monoclonal antibody (antibody, V domains shown)
VH: EVKLVESGGGLVQPGGSLKLSCAASGFTFNSYSMSWVRQTPEKRLEWVAYISNGGGRTYYPDTIKGRFTLSRDNDRNTLYLQMSSLKSEDTAMYYCARGTTESYYALDYWGQGTSVTVSS
VL: DIVMTQSHKFMSTSLGDRISITCKASQDVITAVAWYQQKPGQSPKLLIYWASTRHTGVPDRFTGSGSGTDYNLTISSVQAEDLALYYCQQHFSTPLTFGAGTKLELK
notes: Murine monoclonal antibody purified from a hybridoma; a mIgG1 isotype control (9G4) is used beside it; also called monoclonal antibody 1003A2 derived from the hybridoma I-4499

Columns and labels:
[1] = molecular target: T1, human Axl receptor on human tumor cells; assay: cell-based or functional assay
[2] = molecular target: T2, monkey Axl receptor on COS7 cells; assay: flow cytometry titration on COS7 cells
Protocol: For 110D7, respectively 1003A2 and 1024G11, cellular binding purpose, 2·10⁵ cells were incubated with an antibody concentration range prepared by ½ serial dilution (12 points) of a 10 μg/ml (6.66 10⁻⁸ M) antibody solution of 110D7, respectively 1003A2 and 1024G11, or m9G4 (mIgG1 isotype control Mab) for 20 min at 4° C. After 3 washes in phosphate-buffered saline (PBS) supplemented with 1% BSA and 0.01% NaN₃, cells were incubated with secondary antibody goat anti-mouse Alexa 488 (dilution 1/500) for 20 minutes at 4° C. After 3 additional washes in PBS supplemented with 1% BSA and 0.1% NaN₃, cells were analyzed by FACS (Facscalibur, Becton-Dickinson). At least 5000 cells were assessed to calculate the mean value of fluorescence intensity. Data are analyzed using Prism software.

Binder	% remaining Axl [1] [%]	Δ (MFI No Ab 24 h - MFI Ab 24 h) [1] [MFI]	antibody concentration above which the plateau is reached [2] [pM]
B1	29.8	588	> 1000
B2	45.5	478	> 520
B3	35	505	> 520
